# T1: Boi1 SH3 (BOI1_YEAST), P38041
# T1 chain: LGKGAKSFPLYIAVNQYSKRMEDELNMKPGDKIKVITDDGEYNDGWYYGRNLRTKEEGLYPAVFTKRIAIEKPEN
# T2: Yhr016c SH3 (YSC84_YEAST), P32793
# T2 chain: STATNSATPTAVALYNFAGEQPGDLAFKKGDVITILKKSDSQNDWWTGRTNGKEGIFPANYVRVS
# T3: Rvs167 SH3 (RV167_YEAST), P39743
# T3 chain: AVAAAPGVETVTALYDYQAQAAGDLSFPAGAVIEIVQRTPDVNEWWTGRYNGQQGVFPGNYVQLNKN
# T4: Myo5 SH3 (MYO5_YEAST), Q04439
# T4 chain: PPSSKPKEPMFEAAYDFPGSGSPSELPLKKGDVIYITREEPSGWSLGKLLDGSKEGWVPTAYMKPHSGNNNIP
# T5: Boi2 SH3 (BOI2_YEAST), P39969
# T5 chain: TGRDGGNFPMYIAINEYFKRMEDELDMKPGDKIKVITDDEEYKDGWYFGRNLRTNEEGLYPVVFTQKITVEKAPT
# T6: Yfr024 SH3 (LSB3_YEAST), P43603
# T6 chain: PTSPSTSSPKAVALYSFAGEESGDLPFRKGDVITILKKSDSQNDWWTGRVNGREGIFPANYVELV
# Target: T1, Boi1 SH3 (BOI1_YEAST), P38041
# Experiment: SPOT array
row,Binder,"normalised SPOT signal, Boehringer light units (BLU); mean over the file's lines of this peptide"
1,KLPKKFPPPTPLLE [YER172C 1312-1325],821
2,KKNDRPSPLKPIQH [YKL101W 860-873],2190
3,KKNPKKSPMGPQGA [YPL214C 146-159],725
4,KKNKKKVPLNPLAK [YNL050C 247-260],541
5,KLVLRNVPILPILN [YBL008W 776-789],41.9
6,KLHEKYFPDLPKEV [YDR527W 252-265],90.7
7,KLNKRVLPSKPKKS [YLR183C 350-363],309
8,KKKKKNGPGAPQGY [YGR245C 314-327],329
9,KLKIKILPEQPQLE [YDR407C 838-851],1350
10,KKVIRNYPGHPEGT [YDR364C 152-165],582
11,KKIIKDVPGTPSDK [YLR079W 164-177],3810

# Target: T2, Yhr016c SH3 (YSC84_YEAST), P32793
# Experiment: SPOT array
row,Binder,"normalised SPOT signal, Boehringer light units (BLU); mean over the file's lines of this peptide"
1,KLPKKFPPPTPLLE [YER172C 1312-1325],6
2,KKNDRPSPLKPIQH [YKL101W 860-873],44.4
3,KKNPKKSPMGPQGA [YPL214C 146-159],70.6
4,KKNKKKVPLNPLAK [YNL050C 247-260],179
5,KLVLRNVPILPILN [YBL008W 776-789],74.5
6,KLHEKYFPDLPKEV [YDR527W 252-265],4.5
7,KLNKRVLPSKPKKS [YLR183C 350-363],165
8,KKKKKNGPGAPQGY [YGR245C 314-327],56.7
9,KLKIKILPEQPQLE [YDR407C 838-851],17.7
10,KKVIRNYPGHPEGT [YDR364C 152-165],14
11,KKIIKDVPGTPSDK [YLR079W 164-177],20

# Target: T3, Rvs167 SH3 (RV167_YEAST), P39743
# Experiment: SPOT array
row,Binder,"normalised SPOT signal, Boehringer light units (BLU); mean over the file's lines of this peptide"
1,KLPKKFPPPTPLLE [YER172C 1312-1325],10.1
2,KKNDRPSPLKPIQH [YKL101W 860-873],49.2
3,KKNPKKSPMGPQGA [YPL214C 146-159],143
4,KKNKKKVPLNPLAK [YNL050C 247-260],65.1
5,KLVLRNVPILPILN [YBL008W 776-789],383
6,KLHEKYFPDLPKEV [YDR527W 252-265],57.3
7,KLNKRVLPSKPKKS [YLR183C 350-363],810
8,KKKKKNGPGAPQGY [YGR245C 314-327],23.5
9,KLKIKILPEQPQLE [YDR407C 838-851],56.9
10,KKVIRNYPGHPEGT [YDR364C 152-165],29
11,KKIIKDVPGTPSDK [YLR079W 164-177],65.3

# Target: T4, Myo5 SH3 (MYO5_YEAST), Q04439
# Experiment: SPOT array
row,Binder,"normalised SPOT signal, Boehringer light units (BLU); mean over the file's lines of this peptide"
1,KLPKKFPPPTPLLE [YER172C 1312-1325],19700
2,KKNDRPSPLKPIQH [YKL101W 860-873],341
3,KKNPKKSPMGPQGA [YPL214C 146-159],1010
4,KKNKKKVPLNPLAK [YNL050C 247-260],523
5,KLVLRNVPILPILN [YBL008W 776-789],303
6,KLHEKYFPDLPKEV [YDR527W 252-265],110
7,KLNKRVLPSKPKKS [YLR183C 350-363],919
8,KKKKKNGPGAPQGY [YGR245C 314-327],329
9,KLKIKILPEQPQLE [YDR407C 838-851],261
10,KKVIRNYPGHPEGT [YDR364C 152-165],418
11,KKIIKDVPGTPSDK [YLR079W 164-177],163

# Target: Sho1 SH3 (SHO1_YEAST), P40073
# Experiment: SPOT array
# Sequence of Sho1 SH3 (SHO1_YEAST), P40073 (P40073 295-366): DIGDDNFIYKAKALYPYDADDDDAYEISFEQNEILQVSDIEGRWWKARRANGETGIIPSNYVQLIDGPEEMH
row,Binder,"normalised SPOT signal, Boehringer light units (BLU); mean over the file's lines of this peptide"
1,KLPKKFPPPTPLLE [YER172C 1312-1325],69.2
2,KKNDRPSPLKPIQH [YKL101W 860-873],67.4
3,KKNPKKSPMGPQGA [YPL214C 146-159],136
4,KKNKKKVPLNPLAK [YNL050C 247-260],102
5,KLVLRNVPILPILN [YBL008W 776-789],24.2
6,KLHEKYFPDLPKEV [YDR527W 252-265],30.2
7,KLNKRVLPSKPKKS [YLR183C 350-363],1390
8,KKKKKNGPGAPQGY [YGR245C 314-327],106
9,KLKIKILPEQPQLE [YDR407C 838-851],548
10,KKVIRNYPGHPEGT [YDR364C 152-165],64.4
11,KKIIKDVPGTPSDK [YLR079W 164-177],155

# Target: T5, Boi2 SH3 (BOI2_YEAST), P39969
# Experiment: SPOT array
row,Binder,"normalised SPOT signal, Boehringer light units (BLU); mean over the file's lines of this peptide"
1,KLPKKFPPPTPLLE [YER172C 1312-1325],0
2,KKNDRPSPLKPIQH [YKL101W 860-873],0
3,KKNPKKSPMGPQGA [YPL214C 146-159],66.4
4,KKNKKKVPLNPLAK [YNL050C 247-260],38
5,KLVLRNVPILPILN [YBL008W 776-789],17.3
6,KLHEKYFPDLPKEV [YDR527W 252-265],15.3
7,KLNKRVLPSKPKKS [YLR183C 350-363],1.5
8,KKKKKNGPGAPQGY [YGR245C 314-327],20.2
9,KLKIKILPEQPQLE [YDR407C 838-851],0
10,KKVIRNYPGHPEGT [YDR364C 152-165],24.6
11,KKIIKDVPGTPSDK [YLR079W 164-177],5.6

# Target: T6, Yfr024 SH3 (LSB3_YEAST), P43603
# Experiment: SPOT array
row,Binder,"normalised SPOT signal, Boehringer light units (BLU); mean over the file's lines of this peptide"
1,KLPKKFPPPTPLLE [YER172C 1312-1325],39.9
2,KKNDRPSPLKPIQH [YKL101W 860-873],254
3,KKNPKKSPMGPQGA [YPL214C 146-159],291
4,KKNKKKVPLNPLAK [YNL050C 247-260],540
5,KLVLRNVPILPILN [YBL008W 776-789],1510
6,KLHEKYFPDLPKEV [YDR527W 252-265],30.7
7,KLNKRVLPSKPKKS [YLR183C 350-363],2670
8,KKKKKNGPGAPQGY [YGR245C 314-327],159
9,KLKIKILPEQPQLE [YDR407C 838-851],6
10,KKVIRNYPGHPEGT [YDR364C 152-165],34.3
11,KKIIKDVPGTPSDK [YLR079W 164-177],16.7
